Test results reported in patent publication US5760204.

Columns and labels:
[1] = molecular target: human interleukin 5 receptor 2 HSIL5R2 (human); experiment: Scatchard analysis, 125I-labeled human IL-5 on COS7 cells transfected with pCAGGS.HSIL5R2
[2] = molecular target: human interleukin 5 receptor HSIL5R (human); experiment: Scatchard analysis, 125I-labeled human IL-5 on COS7 cells transfected with pCAGGS.HSIL5R
[3] = molecular target: human interleukin 5 receptor 2 HSIL5R2 (human); experiment: Scatchard analysis, 35S-labeled mouse IL-5 on COS7 cells transfected with pCAGGS.HSIL5R2
[4] = molecular target: low affinity IL-5R on Y16 cells (mouse) (UniProt P21183); experiment: Scatchard analysis, 35S-labeled IL-5 on Y16 cells, low affinity sites
[5] = molecular target: human interleukin 5 receptor HSIL5R (human); experiment: Scatchard analysis, 35S-labeled mouse IL-5 on COS7 cells transfected with pCAGGS.HSIL5R
[6] = molecular target: murine interleukin 5 receptor encoded by pIL-5R.8 (membrane bound, low affinity IL-5R) (mouse); experiment: Scatchard analysis, 35S-labeled IL-5 on COS7 cells transfected with pCAGGS.5R.8
[7] = molecular target: murine interleukin 5 receptor encoded by pIL-5R.8 (membrane bound, low affinity IL-5R) (mouse); experiment: Scatchard analysis, 35S-labeled IL-5 on COS7 cells transfected with pIL-5R.8 (CDM8 vector)
[8] = molecular target: high affinity IL-5R on Y16 cells (mouse) (UniProt P21183); experiment: Scatchard analysis, 35S-labeled IL-5 on Y16 cells, high affinity sites

Substance	Kd [1]	Kd [2]	Kd [3]	Kd [4]	Kd [5]	Kd [6]	Kd [7]	Kd [8]
human interleukin 5 (from UniProt P05113) (ligand)	0.41 nM	0.59 nM	–	–	–	–	–	–
murine interleukin 5 (from UniProt P04401) (ligand)	–	–	0.355 nM	5.1 nM	0.25 nM	9.6 nM	2 nM	0.02 nM
